Experimental findings from PMC5648539 are described below.

In the experiment the target is FLAG-tagged human CXCR4, wild type (human) (UniProt P61073).
FLAG-tagged human CXCR4, wild type (human), sequence (P61073 whole entry): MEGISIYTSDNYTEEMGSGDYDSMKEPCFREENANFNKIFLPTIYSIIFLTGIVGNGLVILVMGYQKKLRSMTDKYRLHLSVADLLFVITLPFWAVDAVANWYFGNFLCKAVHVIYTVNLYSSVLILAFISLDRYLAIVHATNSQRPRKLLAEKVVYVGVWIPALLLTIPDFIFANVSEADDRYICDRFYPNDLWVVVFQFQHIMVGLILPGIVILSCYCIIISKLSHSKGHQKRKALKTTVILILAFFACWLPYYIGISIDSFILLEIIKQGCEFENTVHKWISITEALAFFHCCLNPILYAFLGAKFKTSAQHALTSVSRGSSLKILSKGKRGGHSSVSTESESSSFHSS

In the case of “CXCL12 with Asn33 mutated to glutamic acid (from UniProt P48061-2 22-89) (ligand)”, the Ca2+ flux dose response (printed as Kd) is 0.021 µM. Substance “CXCL12(R8A) (from UniProt P48061-2 22-89) (ligand)” yielded a Ca2+ flux response (potency) of 0.11 µM. Still for that read-out and setting: the result for “CXCL12(R12A) (from UniProt P48061-2 22-89) (ligand)” reads 0.095 µM.
